The target of data set [1] is T1, Cascade (Type I-E crRNA-guided surveillance complex, crRNA-loaded) (Escherichia coli K12 (expressed in …, UniProt Q46901;P76632;Q46899;Q46898;Q46897 1-502;1-160;2-363;1-224;2-199)).
T1 sequence 1: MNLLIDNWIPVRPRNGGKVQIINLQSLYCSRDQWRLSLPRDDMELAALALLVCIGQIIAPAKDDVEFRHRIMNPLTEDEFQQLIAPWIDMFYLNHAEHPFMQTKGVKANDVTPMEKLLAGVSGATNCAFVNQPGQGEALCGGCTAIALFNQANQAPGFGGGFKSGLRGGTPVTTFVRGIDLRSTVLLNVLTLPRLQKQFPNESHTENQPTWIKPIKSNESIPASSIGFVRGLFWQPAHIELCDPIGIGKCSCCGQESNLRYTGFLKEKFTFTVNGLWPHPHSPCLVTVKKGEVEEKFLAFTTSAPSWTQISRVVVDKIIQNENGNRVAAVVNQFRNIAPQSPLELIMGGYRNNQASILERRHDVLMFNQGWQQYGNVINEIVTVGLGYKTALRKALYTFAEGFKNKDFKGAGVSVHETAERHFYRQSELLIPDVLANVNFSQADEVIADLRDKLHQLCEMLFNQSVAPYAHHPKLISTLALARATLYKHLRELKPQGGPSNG
T1 sequence 2: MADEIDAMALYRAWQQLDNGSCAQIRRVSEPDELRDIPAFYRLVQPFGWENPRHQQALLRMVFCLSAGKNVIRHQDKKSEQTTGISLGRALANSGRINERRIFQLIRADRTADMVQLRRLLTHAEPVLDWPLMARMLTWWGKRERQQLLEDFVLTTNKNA
T1 sequence 3: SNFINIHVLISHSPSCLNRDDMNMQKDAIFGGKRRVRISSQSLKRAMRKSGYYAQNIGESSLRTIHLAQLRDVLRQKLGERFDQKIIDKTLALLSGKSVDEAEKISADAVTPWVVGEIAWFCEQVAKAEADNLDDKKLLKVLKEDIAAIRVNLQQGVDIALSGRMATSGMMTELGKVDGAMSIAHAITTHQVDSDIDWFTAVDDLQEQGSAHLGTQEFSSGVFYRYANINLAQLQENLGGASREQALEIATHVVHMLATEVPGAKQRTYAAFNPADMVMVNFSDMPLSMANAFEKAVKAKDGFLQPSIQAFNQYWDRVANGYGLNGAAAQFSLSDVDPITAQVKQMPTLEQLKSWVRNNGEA
T1 sequence 4: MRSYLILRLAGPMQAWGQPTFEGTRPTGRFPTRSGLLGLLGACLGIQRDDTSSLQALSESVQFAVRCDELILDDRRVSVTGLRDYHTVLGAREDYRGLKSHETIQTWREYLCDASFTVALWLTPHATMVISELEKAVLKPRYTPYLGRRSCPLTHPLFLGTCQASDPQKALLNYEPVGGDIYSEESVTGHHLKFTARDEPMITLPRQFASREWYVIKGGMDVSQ
T1 sequence 5: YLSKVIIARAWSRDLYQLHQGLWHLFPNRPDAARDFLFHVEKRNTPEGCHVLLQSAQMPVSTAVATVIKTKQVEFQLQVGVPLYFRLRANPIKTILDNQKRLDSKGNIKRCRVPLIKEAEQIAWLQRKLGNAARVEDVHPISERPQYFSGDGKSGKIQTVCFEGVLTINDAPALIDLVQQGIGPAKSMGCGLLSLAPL
The data set is described as follows: EMSA; g8C-2A crRNA; slightly reduced affinity; EMSA with 32P-labelled dsDNA; buffer, salt, pH and temperature not stated (as in ref 29); Kd from fraction bound = [Cascade]/(Kd+[Cascade]). The following applies: protein: recombinant; copies: 1;2;6;1;1; label: 5'-32P on DNA; guide / target / displaced; DNA blunt duplex. On the technique in general: A gel shift assay detects complexes by their altered migration in electrophoresis.

In data set [2] the target is T1, Cascade (Type I-E crRNA-guided …). The data set is described as follows: EMSA; g8G-1T crRNA; EMSA with 32P-labelled dsDNA; buffer, salt, pH and temperature not stated (as in ref 29); Kd from fraction bound = [Cascade]/(Kd+[Cascade]). Particulars: protein: recombinant; copies: 1;2;6;1;1; label: 5'-32P on DNA; guide / target / displaced; DNA blunt duplex.
The target is the same in data set [3]. The data set is described as follows: EMSA; WT crRNA; EMSA with 32P-labelled dsDNA; buffer, salt, pH and temperature not stated (as in ref 29); Kd from fraction bound = [Cascade]/(Kd+[Cascade]). The following applies: protein: recombinant, copies: 1;2;6;1;1, label: 5'-32P on DNA, DNA blunt duplex.

B1: g8C-2A crRNA + CTT PAM probe (mixed)
RNA: AUAAACAGCUGUCUUUCGCUGCUGAGGGUGACGAUCCCGCGAGUUCCCCGCGCCAGCGGGG
DNA 1: TTAAAGGCCGCTTTTGCGGGATCGTCACCCTCAGCAGCGAAAGACAGCTTCGGAACGAGGGTAGC
DNA 2: GCTACCCTCGTTCCGAAGCTGTCTTTCGCTGCTGAGGGTGACGATCCCGCAAAAGCGGCCTTTAA
As to B1, the Kd – broadly, the concentration at which binding is half-saturated – in data set [1] turned out to be 60 ± 12 nM.

B2: g8G-1T crRNA + CCT PAM probe (mixed)
RNA: AUAAACCUCUGUCUUUCGCUGCUGAGGGUGACGAUCCCGCGAGUUCCCCGCGCCAGCGGGG
DNA 1: TTAAAGGCCGCTTTTGCGGGATCGTCACCCTCAGCAGCGAAAGACAGCCTCGGAACGAGGGTAGC
DNA 2: GCTACCCTCGTTCCGAGGCTGTCTTTCGCTGCTGAGGGTGACGATCCCGCAAAAGCGGCCTTTAA
For B2, the binding result in data set [2] is “binds”.

B3: WT g8 crRNA + CCT PAM (AGG) M13 probe (mixed)
RNA: AUAAACCGCUGUCUUUCGCUGCUGAGGGUGACGAUCCCGCGAGUUCCCCGCGCCAGCGGGG
DNA 1: TTAAAGGCCGCTTTTGCGGGATCGTCACCCTCAGCAGCGAAAGACAGCCTCGGAACGAGGGTAGC
DNA 2: GCTACCCTCGTTCCGAGGCTGTCTTTCGCTGCTGAGGGTGACGATCCCGCAAAAGCGGCCTTTAA
B3: the binding result in data set [3] (guide / target / displaced) is listed as “binds”.

B4: g8G-1T crRNA + CTC PAM probe (mixed)
RNA: AUAAACCUCUGUCUUUCGCUGCUGAGGGUGACGAUCCCGCGAGUUCCCCGCGCCAGCGGGG
DNA 1: TTAAAGGCCGCTTTTGCGGGATCGTCACCCTCAGCAGCGAAAGACAGCTCCGGAACGAGGGTAGC
DNA 2: GCTACCCTCGTTCCGGAGCTGTCTTTCGCTGCTGAGGGTGACGATCCCGCAAAAGCGGCCTTTAA
Take B4: the binding result in data set [2] is on record as “binds”.

B5: WT g8 crRNA + CTC PAM (GAG) M13 probe (mixed)
RNA: AUAAACCGCUGUCUUUCGCUGCUGAGGGUGACGAUCCCGCGAGUUCCCCGCGCCAGCGGGG
DNA 1: TTAAAGGCCGCTTTTGCGGGATCGTCACCCTCAGCAGCGAAAGACAGCTCCGGAACGAGGGTAGC
DNA 2: GCTACCCTCGTTCCGGAGCTGTCTTTCGCTGCTGAGGGTGACGATCCCGCAAAAGCGGCCTTTAA
Consider B5, for which the binding result in data set [3] (guide / target / displaced) is recorded as “binds”.

B6: WT g8 crRNA + CTT PAM (AAG) M13 probe (mixed)
RNA: AUAAACCGCUGUCUUUCGCUGCUGAGGGUGACGAUCCCGCGAGUUCCCCGCGCCAGCGGGG
DNA 1: TTAAAGGCCGCTTTTGCGGGATCGTCACCCTCAGCAGCGAAAGACAGCTTCGGAACGAGGGTAGC
DNA 2: GCTACCCTCGTTCCGAAGCTGTCTTTCGCTGCTGAGGGTGACGATCCCGCAAAAGCGGCCTTTAA
For the molecule B6, in data set [3] (guide / target / displaced), the binding result is “binds”.

B7: g8G-1T crRNA + CTT PAM probe (mixed)
RNA: AUAAACCUCUGUCUUUCGCUGCUGAGGGUGACGAUCCCGCGAGUUCCCCGCGCCAGCGGGG
DNA 1: TTAAAGGCCGCTTTTGCGGGATCGTCACCCTCAGCAGCGAAAGACAGCTTCGGAACGAGGGTAGC
DNA 2: GCTACCCTCGTTCCGAAGCTGTCTTTCGCTGCTGAGGGTGACGATCCCGCAAAAGCGGCCTTTAA
Regarding B7, the binding result in data set [2] is “binds”.

B8: g8G-1T crRNA + CAT PAM probe (mixed)
RNA: AUAAACCUCUGUCUUUCGCUGCUGAGGGUGACGAUCCCGCGAGUUCCCCGCGCCAGCGGGG
DNA 1: TTAAAGGCCGCTTTTGCGGGATCGTCACCCTCAGCAGCGAAAGACAGCATCGGAACGAGGGTAGC
DNA 2: GCTACCCTCGTTCCGATGCTGTCTTTCGCTGCTGAGGGTGACGATCCCGCAAAAGCGGCCTTTAA
Consider B8, for which the binding result in data set [2] is “binds”.

B9: WT g8 crRNA + CAT PAM (ATG) M13 probe (mixed)
RNA: AUAAACCGCUGUCUUUCGCUGCUGAGGGUGACGAUCCCGCGAGUUCCCCGCGCCAGCGGGG
DNA 1: TTAAAGGCCGCTTTTGCGGGATCGTCACCCTCAGCAGCGAAAGACAGCATCGGAACGAGGGTAGC
DNA 2: GCTACCCTCGTTCCGATGCTGTCTTTCGCTGCTGAGGGTGACGATCCCGCAAAAGCGGCCTTTAA
For the molecule B9, the binding result in data set [3] (guide RNA / target strand / displaced strand) was “binds”.

Source of the values: PMC3764190, “Type I-E CRISPR-Cas Systems Discriminate Target from Non-Target DNA through Base Pairing-Independent PAM Recognition”.
